The values below come from patent US6703362 (CYTOGEN, dated 2004).

First the molecules themselves.
T1: D2H receptor domain (human D2H transporter, amino acid residues 387-685), His-tag fusion protein (human, UniProt Q07837 387-685)
T1 construct: purified under denaturing conditions; also called recombinant D2H; not shown: poly-histidine tag (pET vector) at the NH2-terminal end
T1 sequence: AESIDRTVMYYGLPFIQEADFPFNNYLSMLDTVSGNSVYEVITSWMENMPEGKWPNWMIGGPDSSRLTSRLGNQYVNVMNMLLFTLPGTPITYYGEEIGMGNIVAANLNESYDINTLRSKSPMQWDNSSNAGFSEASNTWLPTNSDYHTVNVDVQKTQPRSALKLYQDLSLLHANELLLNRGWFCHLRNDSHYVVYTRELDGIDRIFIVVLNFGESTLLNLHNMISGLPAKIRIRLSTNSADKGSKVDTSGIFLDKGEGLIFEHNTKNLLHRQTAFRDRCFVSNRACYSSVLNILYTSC

B1: SNi28 (peptide)
peptide: SHSGGMNRAYGDVFRELRDRWNATSHHTRPTPQLPRGPNAETVESCLAKPHTENSFTNVWKDDKTLDRYANYEGCLWNATGVVVCTGDETQCYGTWVPIGLAIPENEGGGSEGGGSEGGGSEGGGTKPPEYGDTPIPGYTYINPLDGTYPPGTEQNPANPNPSLEESQPLNTFMFQNNRFRNRQGALTVYTGTVTQGTDPVKTYYQYTPVSSKAMYDAYWNGKFRDCAFHSGFNEDPFVCEYQGQSSDLPQPPVNAGGGSGGGSGGGSEGGGSEGGGSEGGGSEGGGSGGGSGSGDFDYEKMANANKGAMTENADENALQSDAKGKLDSVATDYGAAIDGFIGDVSGLANGNGATGDFAGSNSQMAQVGDGDNSPLMNNFRQYLPSLPQSVECRPFVFSAGKPYEFSIDCDKINLFRGVFAFLLYVATFMYVFSTFANILRNKES
notes: Assayed as M13 phage clone displaying the insert
B2: SNi10 (peptide)
peptide: RVGQCTDSDVRRPWARSCAHQGCGAGTRNSHGCITRPLRQASAHAETVESCLAKPHTENSFTNVWKDDKTLDRYANYEGCLWNATGVVVCTGDETQCYGTWVPIGLAIPENEGGGSEGGGSEGGGSEGGGTKPPEYGDTPIPGYTYINPLDGTYPPGTEQNPANPNPSLEESQPLNTFMFQNNRFRNRQGALTVYTGTVTQGTDPVKTYYQYTPVSSKAMYDAYWNGKFRDCAFHSGFNEDPFVCEYQGQSSDLPQPPVNAGGGSGGGSGGGSEGGGSEGGGSEGGGSEGGGSGGGSGSGDFDYEKMANANKGAMTENADENALQSDAKGKLDSVATDYGAAIDGFIGDVSGLANGNGATGDFAGSNSQMAQVGDGDNSPLMNNFRQYLPSLPQSVECRPFVFSAGKPYEFSIDCDKINLFRGVFAFLLYVATFMYVFSTFANILRNKES
notes: as for B1
B3: SNi34 (peptide)
peptide: SPCGGSWGRFMQGGLFGGRTDGCGAHRNRTSASLEPPSSDYAETVESCLAKPHTENSFTNVWKDDKTLDRYANYEGCLWNATGVVVCTGDETQCYGTWVPIGLAIPENEGGGSEGGGSEGGGSEGGGTKPPEYGDTPIPGYTYINPLDGTYPPGTEQNPANPNPSLEESQPLNTFMFQNNRFRNRQGALTVYTGTVTQGTDPVKTYYQYTPVSSKAMYDAYWNGKFRDCAFHSGFNEDPFVCEYQGQSSDLPQPPVNAGGGSGGGSGGGSEGGGSEGGGSEGGGSEGGGSGGGSGSGDFDYEKMANANKGAMTENADENALQSDAKGKLDSVATDYGAAIDGFIGDVSGLANGNGATGDFAGSNSQMAQVGDGDNSPLMNNFRQYLPSLPQSVECRPFVFSAGKPYEFSIDCDKINLFRGVFAFLLYVATFMYVFSTFANILRNKES
notes: as for B1
B4: SNi38 (peptide)
peptide: RGAADQRRGWSENLGLPRVGWDAIAHNSYTFTSRRPRPPAETVESCLAKPHTENSFTNVWKDDKTLDRYANYEGCLWNATGVVVCTGDETQCYGTWVPIGLAIPENEGGGSEGGGSEGGGSEGGGTKPPEYGDTPIPGYTYINPLDGTYPPGTEQNPANPNPSLEESQPLNTFMFQNNRFRNRQGALTVYTGTVTQGTDPVKTYYQYTPVSSKAMYDAYWNGKFRDCAFHSGFNEDPFVCEYQGQSSDLPQPPVNAGGGSGGGSGGGSEGGGSEGGGSEGGGSEGGGSGGGSGSGDFDYEKMANANKGAMTENADENALQSDAKGKLDSVATDYGAAIDGFIGDVSGLANGNGATGDFAGSNSQMAQVGDGDNSPLMNNFRQYLPSLPQSVECRPFVFSAGKPYEFSIDCDKINLFRGVFAFLLYVATFMYVFSTFANILRNKES
notes: as for B1
B5: DAX24 (peptide)
peptide: RMEDIKNSGWRDSCRWGDLRPGCGSRQWYPSNMRSSRDYPAGGHAETVESCLAKPHTENSFTNVWKDDKTLDRYANYEGCLWNATGVVVCTGDETQCYGTWVPIGLAIPENEGGGSEGGGSEGGGSEGGGTKPPEYGDTPIPGYTYINPLDGTYPPGTEQNPANPNPSLEESQPLNTFMFQNNRFRNRQGALTVYTGTVTQGTDPVKTYYQYTPVSSKAMYDAYWNGKFRDCAFHSGFNEDPFVCEYQGQSSDLPQPPVNAGGGSGGGSGGGSEGGGSEGGGSEGGGSEGGGSGGGSGSGDFDYEKMANANKGAMTENADENALQSDAKGKLDSVATDYGAAIDGFIGDVSGLANGNGATGDFAGSNSQMAQVGDGDNSPLMNNFRQYLPSLPQSVECRPFVFSAGKPYEFSIDCDKINLFRGVFAFLLYVATFMYVFSTFANILRNKES
notes: as for B1
B6: DAB30 (peptide)
peptide: SGFWEFSRGLWDGENRKSVRSGCGFRGSSAQGPCPVTPATIDKHAETVESCLAKPHTENSFTNVWKDDKTLDRYANYEGCLWNATGVVVCTGDETQCYGTWVPIGLAIPENEGGGSEGGGSEGGGSEGGGTKPPEYGDTPIPGYTYINPLDGTYPPGTEQNPANPNPSLEESQPLNTFMFQNNRFRNRQGALTVYTGTVTQGTDPVKTYYQYTPVSSKAMYDAYWNGKFRDCAFHSGFNEDPFVCEYQGQSSDLPQPPVNAGGGSGGGSGGGSEGGGSEGGGSEGGGSEGGGSGGGSGSGDFDYEKMANANKGAMTENADENALQSDAKGKLDSVATDYGAAIDGFIGDVSGLANGNGATGDFAGSNSQMAQVGDGDNSPLMNNFRQYLPSLPQSVECRPFVFSAGKPYEFSIDCDKINLFRGVFAFLLYVATFMYVFSTFANILRNKES
notes: as for B1
B7: DAX27 (peptide)
peptide: SHPWYRHWNHGDFSGSGQSRHTPPESPHPGRPNATIAETVESCLAKPHTENSFTNVWKDDKTLDRYANYEGCLWNATGVVVCTGDETQCYGTWVPIGLAIPENEGGGSEGGGSEGGGSEGGGTKPPEYGDTPIPGYTYINPLDGTYPPGTEQNPANPNPSLEESQPLNTFMFQNNRFRNRQGALTVYTGTVTQGTDPVKTYYQYTPVSSKAMYDAYWNGKFRDCAFHSGFNEDPFVCEYQGQSSDLPQPPVNAGGGSGGGSGGGSEGGGSEGGGSEGGGSEGGGSGGGSGSGDFDYEKMANANKGAMTENADENALQSDAKGKLDSVATDYGAAIDGFIGDVSGLANGNGATGDFAGSNSQMAQVGDGDNSPLMNNFRQYLPSLPQSVECRPFVFSAGKPYEFSIDCDKINLFRGVFAFLLYVATFMYVFSTFANILRNKES
notes: as for B1
B8: DAX15 (peptide)
peptide: SESGRCRSVSRWMTTWQTQKGGCGSNVSRGSPLDPSHQTGHATTAETVESCLAKPHTENSFTNVWKDDKTLDRYANYEGCLWNATGVVVCTGDETQCYGTWVPIGLAIPENEGGGSEGGGSEGGGSEGGGTKPPEYGDTPIPGYTYINPLDGTYPPGTEQNPANPNPSLEESQPLNTFMFQNNRFRNRQGALTVYTGTVTQGTDPVKTYYQYTPVSSKAMYDAYWNGKFRDCAFHSGFNEDPFVCEYQGQSSDLPQPPVNAGGGSGGGSGGGSEGGGSEGGGSEGGGSEGGGSGGGSGSGDFDYEKMANANKGAMTENADENALQSDAKGKLDSVATDYGAAIDGFIGDVSGLANGNGATGDFAGSNSQMAQVGDGDNSPLMNNFRQYLPSLPQSVECRPFVFSAGKPYEFSIDCDKINLFRGVFAFLLYVATFMYVFSTFANILRNKES
notes: as for B1
B9: DAB24 (peptide)
peptide: SKWSWSSRWGSPQDKVEKTRAGCGGSPSSTNCHPYTFAPPPQAGAETVESCLAKPHTENSFTNVWKDDKTLDRYANYEGCLWNATGVVVCTGDETQCYGTWVPIGLAIPENEGGGSEGGGSEGGGSEGGGTKPPEYGDTPIPGYTYINPLDGTYPPGTEQNPANPNPSLEESQPLNTFMFQNNRFRNRQGALTVYTGTVTQGTDPVKTYYQYTPVSSKAMYDAYWNGKFRDCAFHSGFNEDPFVCEYQGQSSDLPQPPVNAGGGSGGGSGGGSEGGGSEGGGSEGGGSEGGGSGGGSGSGDFDYEKMANANKGAMTENADENALQSDAKGKLDSVATDYGAAIDGFIGDVSGLANGNGATGDFAGSNSQMAQVGDGDNSPLMNNFRQYLPSLPQSVECRPFVFSAGKPYEFSIDCDKINLFRGVFAFLLYVATFMYVFSTFANILRNKES
notes: as for B1

T2 sequence (P14410 272-667, one chain of several): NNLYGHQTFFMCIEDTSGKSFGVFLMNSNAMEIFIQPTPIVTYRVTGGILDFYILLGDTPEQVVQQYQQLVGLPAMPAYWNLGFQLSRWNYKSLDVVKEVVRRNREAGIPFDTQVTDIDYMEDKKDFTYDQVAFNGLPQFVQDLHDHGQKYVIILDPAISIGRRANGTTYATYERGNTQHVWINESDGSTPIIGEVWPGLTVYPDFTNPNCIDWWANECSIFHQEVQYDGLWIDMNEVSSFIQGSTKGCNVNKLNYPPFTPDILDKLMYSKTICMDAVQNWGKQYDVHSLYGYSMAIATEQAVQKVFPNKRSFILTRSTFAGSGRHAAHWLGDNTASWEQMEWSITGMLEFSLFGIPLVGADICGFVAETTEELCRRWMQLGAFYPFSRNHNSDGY

One assay has as its target T2, hSI receptor domain (human sucrase-isomaltase complex, amino acid residues 272-667), His-tag fusion protein (human, UniProt P14410 272-667).
T2 construct: also called hS1; recombinant hSI; not shown: poly-histidine tag (pET vector) at the NH2-terminal end
Nature of the assay: phage ELISA, OD on hSI over OD on BSA. Here is the method:
(§1) 6.6. Receptor ELISA Procedure 96 well plates were coated overnight with GIT receptor, BSA and, optionally, IDE (insulin degrading enzyme, an irrelevant His-fusion protein)or hTF. The plates were blocked for one hour with 0.5% BSA-PBS. After clarification, the amplified phage were diluted 1:100 in […] plus 0.05% Tween 20 in PBS and added to the plates. Following incubation of the plates on a rotator for 1 to 2 hours, the plates were washed 5 times with 1% BSA plus 0.05% Tween 20 in PBS. […] After the plates were washed 5 times, as described above, TMB substrate was added to the wells. The plates were read at 650 nm absorbance.
Background: ELISA stands for enzyme-linked immunosorbent assay.
As for B1, the hSI/BSA turned out to be 8 ratio.

For B2, the hSI/BSA amounted to 11 ratio.

The molecule B3 showed a hSI/BSA of 7 ratio.

Take B4: the hSI/BSA stood at 6 ratio.

A further assay concerns the target T2, hSI receptor domain (human …). Nature of the assay: phage ELISA, plate coated with hSI domain. As to the method: as §1
Molecule B1 had an OD of 0.942 OD.

The molecule B2 came in with an OD of 0.57 OD.

With B3, the OD worked out at 0.761 OD.

B4 registered an OD of 0.466 OD.

For the next assay, the target named is T1, D2H receptor domain (human D2H …). Nature of the assay: phage ELISA, plate coated with D2H domain. As to the method: as §1
For the molecule B5, the OD was determined as 0.591 OD.

B6 yielded an OD of 0.704 OD.

Regarding B7, the OD amounted to 1.58 OD.

B8 registered an OD of 0.391 OD.

B9 returned an OD of 1.8 OD.
